Experimental data: patent US20180127480A1 (Stanford University, published 2018)

B1: N3612 F14C coupled to Alexa Fluor 647 (designed binder)
chain: WQPPLLFNKTKSVEFTCGNDTVVIPCFVTNMEAQNTTEVYVKWKFKGRDIYTFDGQANKSTVPTDFSSAKIEVSQLLKGDASLKMDKSDAVSHTGNYTCEVTELTREGETIIELKYRVVSHHHHHHHH
modifications: Alexa Fluor 647 maleimide on the cysteine at position 14 (F14C, mature CD47 numbering)
B2: N3612 C15 coupled to Alexa Fluor 647 (designed binder)
chain: WQPPLLFNKTKSVEFTFCNDTVVIPCFVTNMEAQNTTEVYVKWKFKGRDIYTFDGQANKSTVPTDFSSAKIEVSQLLKGDASLKMDKSDAVSHTGNYTCEVTELTREGETIIELKYRVVSHHHHHHHH
modifications: Alexa Fluor 647 (maleimide chemistry) on the cysteine at position 15 (mature CD47 numbering)
notes: The production of this form is not described separately
B3: biotinylated high affinity CD47 variant N3612 C15G (designed binder)
chain: WQPPLLFNKTKSVEFTFGNDTVVIPCFVTNMEAQNTTEVYVKWKFKGRDIYTFDGQANKSTVPTDFSSAKIEVSQLLKGDASLKMDKSDAVSHTGNYTCEVTELTREGETIIELKYRVVSGLNDIFEAQKIEWHE
modifications: biotin on the biotin acceptor peptide tag (BirA ligase)
notes: An 8x histidine tag is probably also present (Ni-NTA purification)

These binders were tested against T1, SIRPα a1d1 expressed on yeast (human, UniProt P78324 31-149, limits assumed) (assay: flow cytometry titration on yeast expressing SIRPα a1d1).
T1 construct: domain: domain 1; also called SIRPα a1d1-expressing yeast
Description: FIG. 6B Graph showing binding of different CD47 species to SIRPα a1d1-expressing yeast in titration experiments. […] FIG. 6C Graph showing binding to SIRPα a2d1-expressing yeast in titration experiments (CD47 species are the same as in FIG. 6B).
High affinity CD47 variants were modified to produce diagnostic agents. […] In the original high affinity CD47 variants isolated, the cysteine at position 15 (C15) had been changed to a G (C15G variants). To enable coupling of high affinity CD47 variants to a fluorescent moiety, position 15 was reverted to a Cysteine (C15) or the Phenylalanine (F) at position 14 was changed to a Cysteine (F14C). Binding of such reagents to SIRPα was tested. […] As shown in these figures, the high affinity CD47 reagents can detect SIRPα expression on cells, both engineered and non-engineered, much better than the wildtype molecule. Indeed, as show in FIG. 6D, these reagents can perform as well as anti-SIRPα antibody in such assays.

T1 sequence (P78324 31-149 limits assumed): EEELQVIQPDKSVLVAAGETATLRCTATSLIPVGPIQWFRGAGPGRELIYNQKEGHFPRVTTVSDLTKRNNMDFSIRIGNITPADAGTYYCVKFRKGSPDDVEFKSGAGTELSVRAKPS

| Binder | EC50 (read off the curve) [nM] |
| --- | --- |
| B1 | ~5 |
| B2 | ~5 |
| B3 | ~3 |
